Experimental data: publication PMC4960556

Biological target: prostate-specific membrane antigen (PSMA) (UniProt Q04609)
Test: confocal microscopy on cells (binding and internalization)
Settings: 2'-F pyrimidines (stated for PSEP; implied), Flow binding: 50 nM Cy3-RNA on trypsinized, PBS-washed cells, 300 ug/ml yeast tRNA, 30 min, 37 C, internalization: 100 nM in RPMI 1640 + 5% FBS

Sequence of UniProt Q04609 (Q04609 whole entry): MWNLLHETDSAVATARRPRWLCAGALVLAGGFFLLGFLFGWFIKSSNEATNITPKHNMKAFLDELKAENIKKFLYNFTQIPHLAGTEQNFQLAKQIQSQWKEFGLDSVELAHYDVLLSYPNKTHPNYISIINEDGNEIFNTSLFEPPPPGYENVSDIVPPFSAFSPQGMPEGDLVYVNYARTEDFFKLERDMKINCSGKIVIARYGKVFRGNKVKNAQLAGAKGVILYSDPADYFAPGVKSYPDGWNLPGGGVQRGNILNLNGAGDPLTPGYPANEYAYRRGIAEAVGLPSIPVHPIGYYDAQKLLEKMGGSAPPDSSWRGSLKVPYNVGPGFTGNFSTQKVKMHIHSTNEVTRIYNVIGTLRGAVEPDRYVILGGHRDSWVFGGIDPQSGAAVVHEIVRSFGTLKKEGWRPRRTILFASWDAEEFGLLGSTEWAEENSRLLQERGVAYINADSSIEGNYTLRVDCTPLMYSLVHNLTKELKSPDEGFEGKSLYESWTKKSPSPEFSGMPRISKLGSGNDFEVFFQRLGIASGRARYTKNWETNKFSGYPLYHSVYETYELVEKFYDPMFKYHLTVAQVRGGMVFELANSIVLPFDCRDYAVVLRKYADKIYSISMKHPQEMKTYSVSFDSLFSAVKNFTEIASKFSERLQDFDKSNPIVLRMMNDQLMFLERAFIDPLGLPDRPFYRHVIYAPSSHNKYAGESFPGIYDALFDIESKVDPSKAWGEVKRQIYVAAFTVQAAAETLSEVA

Q: How did the binding signal (fraction of PSEP fluorescence) turn out when “GGGAGGACGAUGCGGAUCAGCCAUGUUUACGUCACUCCUAAAAUGUAGAGAUGCGGUGGUCCUU / GGAUCCCGACUGGCGAGAGCCAGGUAACGAAUGGAUCCAAAAACCUUAGCAGUCUUAUCUAAUUUUGGACCACCGCAUCUCUACAUU / UUAGAUAAGACUGCUAAGGCA [PSEM (monovalent: one PSMA aptamer, one MG aptamer)]” was run?
A: 0.5
